Measured values as given in article PMC3215855 (Developmental cell, 2011).

T1: LRP6(3-4) (human, UniProt O75581 630-1246, N-linked carbohydrate at five predicted sites)
T1 sequence: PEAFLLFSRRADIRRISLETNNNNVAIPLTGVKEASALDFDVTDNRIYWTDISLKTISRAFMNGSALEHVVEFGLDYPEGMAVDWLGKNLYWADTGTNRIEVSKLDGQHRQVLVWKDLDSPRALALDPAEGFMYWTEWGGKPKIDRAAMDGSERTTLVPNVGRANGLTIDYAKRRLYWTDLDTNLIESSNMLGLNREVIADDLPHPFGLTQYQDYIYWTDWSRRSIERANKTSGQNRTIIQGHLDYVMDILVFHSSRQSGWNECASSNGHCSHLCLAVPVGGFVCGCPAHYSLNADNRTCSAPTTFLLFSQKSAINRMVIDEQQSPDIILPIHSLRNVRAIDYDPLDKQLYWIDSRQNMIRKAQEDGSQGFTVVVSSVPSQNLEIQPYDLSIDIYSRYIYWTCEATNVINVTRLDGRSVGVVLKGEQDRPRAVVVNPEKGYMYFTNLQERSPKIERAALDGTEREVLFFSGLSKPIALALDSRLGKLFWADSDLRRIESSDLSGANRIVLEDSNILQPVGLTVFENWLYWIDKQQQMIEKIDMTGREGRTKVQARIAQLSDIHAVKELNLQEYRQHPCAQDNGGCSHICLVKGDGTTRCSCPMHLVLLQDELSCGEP


Target: T1, LRP6(3-4)
Experiment: ITC

Binder	Kd [nM]	stoichiometry N
full-length Dkk1 (ligand, human, UniProt O94907 32-266, looked up, one N-linked carbohydrate site) TLNSVLNSNAIKNLPPPLGGAAGHPGSAVSAAPGILYPGGNKYQTIDNYQPYPCAEDEECGTDEYCASPTRGGDAGVQICLACRKRRKRCMRHAMCCPGNYCKNGICVSSDQNHFRGEIEETITESFGNDHSTLDGYSRRTTLSSKMYHTKGQEGSVCLRSSDCASGLCCARHFWSKICKPVLKEGQVCTKHRRKGSHGLEIFQRCYCGEGLSCRIQKDHHQASNSSRLHTCQRH	67	
Dkk1_C (domain or fragment, human, UniProt O94907 178-266, looked up) MYHTKGQEGSVCLRSSDCASGLCCARHFWSKICKPVLKEGQVCTKHRRKGSHGLEIFQRCYCGEGLSCRIQKDHHQASNSSRLHTCQRH		1
